Results: patent publication US5639868, “High-affinity RNA ligands for basic fibroblast growth factor” (NeXstar Pharmaceuticals, Inc.)

B1: 5A (ssRNA)
RNA: GGGAGCUCAGAAUAAACGCUCAAAUCUCCUCCCGUCGAAGCUAACCUGGCCACUUCGACAUGAGGCCCGGAUCCGGC
B2: 26A (ssRNA)
RNA: GGGAGCUCAGAAUAAACGCUCAACGUCAGAAGGCAACGUAUAGGCAAGCACACUUCGACAUGAGGCCCGGAUCCGGC
B3: 7A (ssRNA)
RNA: GGGAGCUCAGAAUAAACGCUCAAUCGGCGAGCUAACCAAGACACUCGCUGCACUUCGACAUGAGGCCCGGAUCCGGC
B4: 2'-NH2 38B (ssRNA)
RNA: GGGAGGACGAUGCGGGCUGCGGUGCGCAUGUGUGGAAGACAGAGGGAGGUUAGAAUCGUGCCGCCAGACGACUCGCCCGA
modifications: 2'-NH2 at all C and U
B5: 12A (ssRNA)
RNA: GGGAGCUCAGAAUAAACGCUCAAGGGGCAACGCUACAGACAAGUGCACCCAACUUCGACAUGAGGCCCGGAUCCGGC

Columns and labels:
[1] = target: T1, basic fibroblast growth factor (bFGF, FGF-2) (UniProt P09038 P09038:135-288); assay: filter; biphasic, Kd1 (mole fraction 0.5); Kd2 = 270 nM; settings: tags: Bachem California; 18 kDa, 154 amino acids
Procedure: (§1) This affinity screening allowed identification of those ligands with highest affinity for bFGF. Binding of a group of these ligands was analyzed over a range of bFGF concentrations (FIG. 8) and their dissociation constants (Kd's) were determined as described (Jellinek et al. (1993) Proc. Natl. Acad. Sci. U.S.A. 90:11227–11231) (Table IX). RNA concentrations were determined from their absorbance reading at […] (and were typically <100 pM). Binding reactions were done at 37° C. in phosphate buffered saline containing 0.01% human serum albumin and 1 mM DTT.
(§2) The minimal sequence information required for high-affinity binding to bFGF was examined for several of the 2'-NH_2 modified ligands by deletion analyses as described (Tuerk et al. (1990) J. Mol. Biol. 213:749–761).

[2] = target: T1, basic fibroblast growth factor (bFGF, …); assay: inhibition; 125I-bFGF binding to high-affinity receptor, BHK cells, 4 C; settings: tags: Bachem California; 18 kDa, 154 amino acids; label: 125I
Procedure: Receptor Binding Studies. bFGF was labeled with ^125I by the Iodo-Gen (Pierce) procedure as described by Moscatelli (1987) supra. […] The amount of 125I-bFGF bound to the low- and the high-affinity receptor sites was determined as described by Moscatelli (1987) supra.

[3] = target: T1, basic fibroblast growth factor (bFGF, …); assay: filter; binding curve in figure only; PBS, 0.01% HSA, 1 mM DTT, 37 C; settings: tags: Bachem California; 18 kDa, 154 amino acids
Procedure: Binding curves for modified RNA ligands 21A, 38B and random RNAs were determined (FIG. 8). RNA concentrations were determined from their absorbance reading at 260 nm and were typically less than 100 pM. Binding reactions were conducted at 37° C. in phosphate buffered saline containing 0.01% human serum albumin and 1 mM DTT. Heparin competitively displaced RNA ligands from both sequence families (FIG. 3), although higher concentrations of heparin were required to displace members of family 2 from bFGF.
as §1

[4] = target: T1, basic fibroblast growth factor (bFGF, …); assay: filter; monophasic; settings: tags: Bachem California; 18 kDa, 154 amino acids
Procedure: as §1, §2

[5] = target: T1, basic fibroblast growth factor (bFGF, …); assay: filter; biphasic, Kd1 (mole fraction 0.5); Kd2 = 180 nM; settings: tags: Bachem California; 18 kDa, 154 amino acids
Procedure: as §1, §2

T1 sequence (P09038 135-288, one chain of several): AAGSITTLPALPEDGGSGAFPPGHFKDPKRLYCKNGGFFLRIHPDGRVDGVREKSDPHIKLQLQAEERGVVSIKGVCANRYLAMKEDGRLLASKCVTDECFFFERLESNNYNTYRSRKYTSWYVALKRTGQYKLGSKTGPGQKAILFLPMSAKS

| Binder | IC50 [2] [nM] | also measured |
| --- | --- | --- |
| GGUGUGUGGAAGACAGCGGGUGGUUC (ssRNA, 2'-NH2 at all C and U) [2'-NH2 21A-t] | – | Kd [1]: 0.1 nM |
| B1 | ~1000 | – |
| B2 | ~1000 | – |
| B3 | ~1000 | – |
| B4 | – | binding result [3]: binds |
| B5 | > 1000 | – |
| GGAGGACGAUGCGGAACGGGAGGUACGAGAGCGGGAGC (ssRNA, 2'-NH2 at all C and U) [2'-NH2 34B-t] | – | Kd [4]: 3 nM |
| GGACGGCGUGGUCCGAGGGUGGCGAGU (ssRNA, 2'-NH2 at all C and U) [2'-NH2 58A-t] | – | Kd [5]: 1.8 nM |
